Positions of bridges follow the written chain, without caps; N, C: chain ends. No end group written: not given here.
Target: thioredoxin reductase
Test: cell-based or functional assay

IC50 of thioredoxin reductase activity (DTNB reduction, absorbance at 405-414 nM): 36 nM
B1: peptide YJB02 (peptide)
peptide: GTCVNVGCIPRQIKIWFQNRRMKWKK
modifications: disulfide 3-8 (inferred)

Source: patent US20110171292A1 (RESEARCH FOUNDATION OF STATE UNIVERSITY OF NEW YORK, published 2011)
